Patent US8216580B2, “Sulfatases and methods of use thereof” (The Regents of the University of California, priority 2000, dated 2012)

B1: Human glucosamine-6-sulfatase: human lysosomal glucosamine-6-sulfatase, purchased from Glyko Inc. (protein, UniProt P15586 37-552, looked up)
N-acetylglucosamine-6-sulfatas …: VFGVAAGTRRPNVVLLLTDDQDEVLGGMTPLKKTKALIGEMGMTFSSAYVPSALCCPSRASILTGKYPHNHHVVNNTLEGNCSSKSWQKIQEPNTFPAILRSMCGYQTFFAGKYLNEYGAPDAGGLEHVPLGWSYWYALEKNSKYYNYTLSINGKARKHGENYSVDYLTDVLANVSLDFLDYKSNFEPFFMMIATPAPHSPWTAAPQYQKAFQNVFAPRNKNFNIHGTNKHWLIRQAKTPMTNSSIQFLDNAFRKRWQTLLSVDDLVEKLVKRLEFTGELNNTYIFYTSDNGYHTGQFSLPIDKRQLYEFDIKVPLLVRGPGIKPNQTSKMLVANIDLGPTILDIAGYDLNKTQMDGMSLLPILRGASNLTWRSDVLVEYQGEGRNVTDPTCPSLSPGVSQCFPDCVCEDAYNNTYACVRTMSALWNLQYCEFDDQEVFVEVYNLTADPDQITNIAKTIDPELLGKMNYRLMMLQSCSGPTCRTPGVFDPGYRFDPRLMFSNRGSVRTRRFSKHLL

Legend:
[1] = comparison enzymes; cited from earlier work
[2] = Arylsulfatase activity assay with 4-MUS substrate; format: biochemical; conditions: 1 milliunit, 24 hr incubation
Procedure: The 100-fold concentrated conditioned medium (CM) derived from each transfection of CHO cells as described above was dialyzed into 50 mM HEPES, pH 8.0. The His-tagged fusion proteins were bound to a Ni-NTA resin (QIAGEN) by rotation at 4° C. over night, then washed with 50 mM HEPES (pH 8.0), 3 times. 250 mM imidazole in 50 mM HEPES, pH 8.0 was used to elute the His-tagged fusion proteins from Ni-NTA. The resins with boud material or the eluates were mixed with 10 mM 4-methylumbelliferyl-sulfate (4-MUS; a substrate for sulfatases), and 10 mM lead acetate, in a total volume of 100 μl. The reaction mixtures were incubated at 37° C. for various periods of time. Reactions were terminated by the addition of 100 μl of 0.5 M Na2CO3/NaHCO3, pH 10.7 to 20 μl of the reaction mixture. The fluorescence of 4-methylumbelliferone was measured on a Multi-Well Plate Reader CytoFluorII (PerSeptive Biosystems). The fluorescence was determined at an excitation wavelength of 360 nm and emission wavelength of 460 nm. A substrate dose response curve was performed over the concentration range of 1 to 10 mM 4-MUS.
The synthetic fluorogenic compound 4-methylumbelliferyl sulfate (4-MUS) serves as a substrate for most sulfatases, both in the lysosomal and non-lysosomal classes. CHO cells were transfected with a cDNA for HSulf-1 or HSulf-2 or a vector control. Conditioned medium was collected and incubated with nickel resin (Ni-NTA) to bind the His-tagged recombinant proteins. The bead-bound material was assayed for activity on 4-MUS. For both enzymes, hydrolysis depended on time of reaction (FIG. 15A), concentration of substrate (FIG. 15B), and amount of CM (FIG. 15C). From the substrate dose-response curves of FIG. 15B and based on estimates of Sulf protein levels in CM, we approximated Vmax for the two Sulfs to be in the range of 1000-2000 nmol per min per mg of Sulf protein. Human glucosamine-6-sulfatase has a considerably lower Vmax against 4-MUS ([…]) whereas the Vmax of human N-acetylgalactosamine-4-sulfatase (arylsulfatase B) is much higher (48000).
HSulf-1, HSulf-2 or their mutated forms (HSulf-1 ΔCC and HSulf-2 ΔCC) was purified from the conditioned medium of transfected CHO cells by binding to Ni-NTA beads. A) The bead-bound material was tested for arylsulfatase activity as a function of time against 10 mM 4-MUS substrate at pH 8. The “no-enzyme” control was based on testing conditioned medium from vector-control transfected CHO cells. No activity was detected in the absence of added substrate (not shown). […] The activity of each Sulf was determined relative to that of beads exposed to an equivalent volume of vector-control conditioned medium. The activity of HG6S was determined (24 hr incubation) relative to that of the buffer. […]

Row | Molecule | Vmax against 4-MUS [1] [nmol/min/mg] | arylsulfatase activity at pH 5 ([2]; pH 5) | arylsulfatase activity at pH 8 ([2]; pH 8)
1 | human N-acetylgalactosamine-4-sulfatase: human N-acetylgalactosamine-4-sulfatase (arylsulfatase B), comparison enzyme [reference compound] | 48000 |  | 
2 | B1 | 100 | measurable activity | none
